“And” between values parts separate entries of the source, which are not always exact repeats. Equal entries are not always repeated.
Experiments:
[1] = target: monoclonal antibody cmHsp70.1 as produced by hybridoma cmHsp70.1 (DSM ACC2629); assay: flow cytometry at 4 C, CT26 cells, cmHsp70.1-FITC 5 µg/mL plus TKD 25 µg/mL
[2] = target: monoclonal antibody cmHsp70.1 as produced by hybridoma cmHsp70.1 (DSM ACC2629); assay: flow cytometry at 4 C, CT26 cells, cmHsp70.1-FITC 5 µg/mL plus TKD 12.5 µg/mL
[3] = target: theta antigen on BW mouse tumor cells; assay: staining of BW mouse cells transfected with theta (method not given)
[4] = target: membrane Hsp70 on mouse tumor cells (mouse) (UniProt Q61696); assay: flow cytometry, cmHsp70.1-FITC on viable CT26 mouse colon carcinoma cells; IgG1 isotype control as white histogram
Chain of UniProt Q61696 (Q61696 2-641): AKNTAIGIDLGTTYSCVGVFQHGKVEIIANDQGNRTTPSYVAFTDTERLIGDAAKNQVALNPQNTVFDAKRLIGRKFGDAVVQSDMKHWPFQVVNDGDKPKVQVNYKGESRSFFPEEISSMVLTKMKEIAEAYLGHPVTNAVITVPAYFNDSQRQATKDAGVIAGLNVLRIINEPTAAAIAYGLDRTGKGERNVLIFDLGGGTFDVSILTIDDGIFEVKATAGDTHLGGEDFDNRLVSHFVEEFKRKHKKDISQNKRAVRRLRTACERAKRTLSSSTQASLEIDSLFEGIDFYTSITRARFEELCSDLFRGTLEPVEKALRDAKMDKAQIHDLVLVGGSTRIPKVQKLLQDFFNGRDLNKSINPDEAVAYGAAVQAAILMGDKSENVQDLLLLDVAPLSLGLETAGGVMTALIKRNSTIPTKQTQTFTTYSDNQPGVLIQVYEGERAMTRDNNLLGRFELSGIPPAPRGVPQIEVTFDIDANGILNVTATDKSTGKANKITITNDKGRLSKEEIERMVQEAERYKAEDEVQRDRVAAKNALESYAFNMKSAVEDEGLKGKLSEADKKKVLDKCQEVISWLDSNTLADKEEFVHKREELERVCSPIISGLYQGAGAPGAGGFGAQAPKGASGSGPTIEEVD

[5] = target: membrane Hsp70 on mouse tumor cells (mouse) (UniProt Q61696); assay: flow cytometry, CT26 cells used as ADCC targets (FIG. 9A)
[6] = target: membrane Hsp70 on mouse tumor cells (mouse) (UniProt Q61696); assay: flow cytometry at 4 C, CT26 cells, cmHsp70.1-FITC 5 µg/mL without peptide
[7] = target: membrane Hsp70 on mouse tumor cells (mouse) (UniProt Q61696); assay: flow cytometry, CT26 cells used as ADCC targets (FIG. 8)
[8] = target: membrane Hsp70 on mouse tumor cells (mouse) (UniProt Q61696); assay: flow cytometry at 4 C, viable A20 (BALB/c) B cell lymphoma cells (counted as membrane Hsp70 negative, limit 15%)
[9] = target: membrane Hsp70 on mouse tumor cells (mouse) (UniProt Q61696); assay: cell-based or functional assay
[10] = target: membrane Hsp70 on mouse tumor cells (mouse) (UniProt Q61696); assay: flow cytometry at 4 C, viable MOS162 (C3H) osteosarcoma cells
[11] = target: membrane Hsp70 on mouse tumor cells (mouse) (UniProt Q61696); assay: flow cytometry, single-cell suspensions of CT26 tumors from mice on day 14; antibody not named
[12] = target: membrane Hsp70 on mouse tumor cells (mouse) (UniProt Q61696); assay: flow cytometry at 4 C, viable ADJ (BALB/c) plasmocytoma cells
[13] = target: membrane Hsp70 on mouse tumor cells (mouse) (UniProt Q61696); assay: flow cytometry, cultured CT26 cells; antibody not named
[14] = target: membrane Hsp70 on mouse tumor cells (mouse) (UniProt Q61696); assay: flow cytometry at 4 C, viable CT26 (BALB/c) colon carcinoma cells
[15] = target: membrane Hsp70 on mouse tumor cells (mouse) (UniProt Q61696); assay: flow cytometry, CT26 cells from tissue culture; antibody not named
[16] = target: membrane Hsp70 on mouse tumor cells (mouse) (UniProt Q61696); assay: flow cytometry at 4 C, viable 1048 (BALB/c) pancreatic carcinoma cells (counted as membrane Hsp70 negative, limit 15%)
[17] = target: membrane Hsp70 on mouse tumor cells (mouse) (UniProt Q61696); assay: flow cytometry, CT26 cells used as ADCC targets (FIG. 9B)
[18] = target: membrane Hsp70 on mouse tumor cells (mouse) (UniProt Q61696); assay: flow cytometry at 4 C, viable B16/F10 (C57/Bl6) melanoma cells
[19] = target: membrane Hsp70 on mouse tumor cells (mouse) (UniProt Q61696); assay: flow cytometry, single cell suspensions of CT26 tumors from mice on day 14; antibody not named
[20] = target: purified human Hsp70 protein (human) (UniProt P0DMV8); assay: SPR, Biacore X, 25 C, Hsp70 0.78-50 nM, global fit to a 1:1 model
Chain of UniProt P0DMV8 (P0DMV8 whole entry): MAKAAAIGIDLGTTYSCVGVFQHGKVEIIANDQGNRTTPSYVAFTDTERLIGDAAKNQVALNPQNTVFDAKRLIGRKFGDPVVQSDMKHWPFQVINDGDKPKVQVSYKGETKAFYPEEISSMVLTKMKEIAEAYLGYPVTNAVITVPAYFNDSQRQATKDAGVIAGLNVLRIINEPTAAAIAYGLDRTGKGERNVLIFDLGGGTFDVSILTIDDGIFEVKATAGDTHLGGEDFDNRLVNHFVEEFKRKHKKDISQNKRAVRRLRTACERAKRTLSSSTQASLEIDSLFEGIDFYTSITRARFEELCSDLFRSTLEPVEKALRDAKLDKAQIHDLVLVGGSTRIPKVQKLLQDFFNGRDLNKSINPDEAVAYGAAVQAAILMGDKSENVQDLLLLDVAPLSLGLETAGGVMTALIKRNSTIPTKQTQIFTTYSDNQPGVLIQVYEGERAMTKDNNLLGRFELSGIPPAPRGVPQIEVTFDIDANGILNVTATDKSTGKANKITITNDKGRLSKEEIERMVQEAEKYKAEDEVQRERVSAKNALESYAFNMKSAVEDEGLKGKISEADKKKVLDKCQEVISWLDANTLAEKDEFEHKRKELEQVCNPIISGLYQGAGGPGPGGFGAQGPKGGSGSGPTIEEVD

## 14-mer Hsp70 peptide TKD (…)
[1]
  membrane Hsp70+ cells (%) left in the presence of the peptide: < 15%
[2]
  membrane Hsp70+ cells (%) left in the presence of the peptide: 44%

## IgG1 O×7.11 mAb (antibody)
[3]
  positive cells (%): 56%

## monoclonal antibody cmHsp70.1 as produced by hybridoma cmHsp70.1 (DSM ACC2629)
[4]
  positive cells in the marker gate: 59%
[5]
  membrane Hsp70+ cells (%): 60%
[6]
  membrane Hsp70+ cells (%): 59% and 60%
[7]
  Hsp70 membrane-positive cells (%): 55%
[8]
  Hsp70 membrane-positive cells (%): 5%
[9]
  ADCC against CT26 tumor cells (4 h 51Cr release, unstimulated mouse spleen cells): 1.4 µg/mL
[10]
  Hsp70 membrane-positive cells (%): 70%
[11]
  membrane Hsp70+ cells (%): 69.8%
[12]
  Hsp70 membrane-positive cells (%): 45%
[13]
  membrane Hsp70+ cells (%): 46.2%
[14]
  Hsp70 membrane-positive cells (%): 44%
[15]
  Hsp70 membrane positive cells (%): 56.2%
[16]
  Hsp70 membrane-positive cells (%): 12%
[17]
  cmHsp70.1+ cells (%): 61%
[18]
  Hsp70 membrane-positive cells (%): 97%
[19]
  Hsp70 membrane positive cells (%): 79.8%
[20]
  Kd: 5.4 nM
  koff: 0.000379 s⁻¹
  kon: 69900 M⁻¹ s⁻¹
